Like-named read-outs stand apart in the source and are kept apart here.

Consider five molecules from article PMC3923644.

Series [1] deals with T1, APE1 WT (Homo sapiens, UniProt P27695 1-318). The series can be described thus: EMSA. (Mobility shift assays separate free from complexed probe on a gel.)
Series [2] has as its target T2, APE1 NΔ33 (Homo sapiens, UniProt P27695 34-318, del1-33). The series can be described thus: EMSA.
For series [3], the target named is T1, APE1 WT. The series can be described thus: SPR. For orientation: Surface plasmon resonance follows binding to a sensor surface in real time, without labels.
The target of series [4] is T1, APE1 WT. Description: SPR. The source holds these as a separate data set.
The target of series [5] is T2, APE1 NΔ33. The series can be described thus: SPR.

T2 sequence (P27695 34-318, stated change not applied): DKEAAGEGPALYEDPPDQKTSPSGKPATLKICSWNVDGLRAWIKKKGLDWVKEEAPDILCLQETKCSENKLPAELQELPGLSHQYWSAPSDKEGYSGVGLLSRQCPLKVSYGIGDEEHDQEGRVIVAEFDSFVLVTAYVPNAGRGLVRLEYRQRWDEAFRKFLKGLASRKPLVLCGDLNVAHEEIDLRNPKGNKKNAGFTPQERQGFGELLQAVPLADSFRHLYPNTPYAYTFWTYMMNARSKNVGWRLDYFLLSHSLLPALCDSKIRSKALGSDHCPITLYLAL
T1 sequence (P27695 whole entry): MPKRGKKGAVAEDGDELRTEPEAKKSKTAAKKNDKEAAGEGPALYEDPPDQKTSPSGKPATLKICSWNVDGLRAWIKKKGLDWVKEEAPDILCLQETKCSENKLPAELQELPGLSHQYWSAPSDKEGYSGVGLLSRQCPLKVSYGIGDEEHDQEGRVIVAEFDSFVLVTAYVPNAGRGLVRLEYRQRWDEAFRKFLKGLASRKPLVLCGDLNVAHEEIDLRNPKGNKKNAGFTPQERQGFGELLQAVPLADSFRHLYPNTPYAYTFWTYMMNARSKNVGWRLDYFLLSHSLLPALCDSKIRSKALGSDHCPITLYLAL

B1: nCaRE-B SIRT1-A (dsDNA)
DNA 1: TTTTTGAGACAGAGTTTCACTCTTG
DNA 2: CAAGAGTGAAACTCTGTCTCAAAAA
In the case of B1, the values for the binding result in the series with APE1 WT [1] and with APE1 NΔ33 [2] were “binds” and “no binding”, respectively.

B2: nCaRE-B SIRT1-B mutated (biotinylated) (dsDNA)
DNA 1: TTTTTGCTAAGGAGCGTCGCTCTTG
DNA 2: CAAGAGCGACGCTCCTTAGCAAAAA
The term Kd denotes a measure of binding affinity in units of concentration. Low readings indicate higher affinity, high ones lower affinity. Regarding B2, binding in the series with APE1 WT [3] was put at a Kd of 119 ± 8 µM.

B3: nCaRE-B SIRT1-B (biotinylated) (dsDNA)
DNA 1: TTTTTGAGACGGAGTTTCGCTCTTG
DNA 2: CAAGAGCGAAACTCCGTCTCAAAAA
Regarding B3, binding in the series with APE1 WT [4] was put at a Kd of 3.9 ± 0.08 µM. Besides, in the series with APE1 NΔ33 [5], the binding result is reported as “no binding”.

B4: poly(dT) 24-mer (ssDNA)
DNA: TTTTTTTTTTTTTTTTTTTTTTTT
The molecule B4 came in with a dissociation constant (Kd) with APE1 WT [4] of 308 ± 3 µM. In addition, in the series with APE1 NΔ33 [5], the binding result was “no binding”.

B5: nCaRE-B SIRT1-B (dsDNA)
DNA 1: TTTTTGAGACGGAGTTTCGCTCTTG
DNA 2: CAAGAGCGAAACTCCGTCTCAAAAA
With B5, the binding result with APE1 NΔ33 [2] is given as “no binding”.
